# Measured values published in article PMC4358367, “Structural basis of diverse membrane target recognitions by ankyrins” (eLife, 2014).
# Substitutions are numbered along the chain they refer to. In names and notes the source's numbering stands.
# T1: FITC-labeled AnkR_AS peptide
# T1 chain: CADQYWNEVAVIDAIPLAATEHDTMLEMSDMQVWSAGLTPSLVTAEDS
# T2: AnkR_repeats (24 ANK repeats of ankyrin-R, residues 42–853) (mouse, UniProt Q02357-6 42-853)
# T2 chain: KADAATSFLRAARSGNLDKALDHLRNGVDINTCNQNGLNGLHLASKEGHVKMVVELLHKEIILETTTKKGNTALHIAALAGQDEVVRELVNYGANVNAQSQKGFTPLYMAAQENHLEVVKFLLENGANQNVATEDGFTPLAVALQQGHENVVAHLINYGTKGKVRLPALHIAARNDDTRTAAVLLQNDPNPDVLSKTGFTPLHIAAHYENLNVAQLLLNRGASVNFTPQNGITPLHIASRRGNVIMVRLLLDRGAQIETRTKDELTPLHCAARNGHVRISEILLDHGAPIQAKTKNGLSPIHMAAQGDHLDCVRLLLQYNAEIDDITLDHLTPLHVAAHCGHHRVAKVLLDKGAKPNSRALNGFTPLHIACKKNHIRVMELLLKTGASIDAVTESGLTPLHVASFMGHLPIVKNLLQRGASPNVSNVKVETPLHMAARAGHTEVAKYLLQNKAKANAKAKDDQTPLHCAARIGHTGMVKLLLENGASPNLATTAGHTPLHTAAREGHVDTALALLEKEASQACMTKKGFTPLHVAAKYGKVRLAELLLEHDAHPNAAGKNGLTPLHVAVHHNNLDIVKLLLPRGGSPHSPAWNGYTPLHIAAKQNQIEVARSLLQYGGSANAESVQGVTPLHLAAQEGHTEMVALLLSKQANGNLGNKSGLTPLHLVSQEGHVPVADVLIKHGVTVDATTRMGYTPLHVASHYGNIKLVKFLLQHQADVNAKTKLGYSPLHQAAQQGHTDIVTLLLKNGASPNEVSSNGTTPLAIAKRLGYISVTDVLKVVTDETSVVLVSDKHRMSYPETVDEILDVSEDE
# T3: Nav1.2_ABD (ankyrin binding domain of Nav1.2, residues 1035–1129)
# T3 chain: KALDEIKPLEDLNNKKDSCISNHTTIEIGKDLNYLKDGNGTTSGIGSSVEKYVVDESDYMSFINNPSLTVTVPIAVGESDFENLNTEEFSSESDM
# B1: AnkB_repeats (24 ANK repeats of human 220 kDa ankyrin-B, residues 28–873), Q01484 L366Q; F399Q; L432Q (protein)
# chain: KSDSNASFLRAARAGNLDKVVEYLKGGIDINTCNQNGLNALHLAAKEGHVGLVQELLGRGSSVDSATKKGNTALHIASLAGQAEVVKVLVKEGANINAQSQNGFTPLYMAAQENHIDVVKYLLENGANQSTATEDGFTPLAVALQQGHNQAVAILLENDTKGKVRLPALHIAARKDDTKSAALLLQNDHNADVQSKMMVNRTTESGFTPLHIAAHYGNVNVATLLLNRGAAVDFTARNGITPLHVASKRGNTNMVKLLLDRGGQIDAKTRDGLTPLHCAARSGHDQVVELLLERGAPLLARTKNGLSPLHMAAQGDHVECVKHLLQHKAPVDDVTLDYQTALHVAAHCGHYRVTKLLLDKRANPNARALNGQTPLHIACKKNRIKVMELLVKYGASIQAITESGQTPIHVAAFMGHLNIVLLLLQNGASPDVTNIRGETALHMAARAGQVEVVRCLLRNGALVDARAREEQTPLHIASRLGKTEIVQLLLQHMAHPDAATTNGYTPLHISAREGQVDVASVLLEAGAAHSLATKKGFTPLHVAAKYGSLDVAKLLLQRRAAADSAGKNGLTPLHVAAHYDNQKVALLLLEKGASPHATAKNGYTPLHIAAKKNQMQIASTLLNYGAETNIVTKQGVTPLHLASQEGHTDMVTLLLDKGANIHMSTKSGLTSLHLAAQEDKVNVADILTKHGADQDAHTKLGYTPLIVACHYGNVKMVNFLLKQGANVNAKTKNGYTPLHQAAQQGHTHIINVLLQHGAKPNATTANGNTALAIAKRLGYISVVDTLKVVTEEVTTTTTTITEKHKLNVPETMTEVLDVSDEEGDDTMTGDGGEYLRPEDLKELGDD
# B2: AnkB_repeats (24 ANK repeats of human 220 kDa ankyrin-B, residues 28–873), Q01484 F131Q; F164Q (protein)
# chain: B1 chain with F104Q, F137Q, Q339L, Q372F, Q405L
# B3: AnkB_repeats site 1 mutant 'FF' (Phe131 and Phe164 to Gln) (domain or fragment)
# chain: B1 chain with F104Q, F137Q, Q339L, Q372F, Q405L
# B4: AnkB_repeats site 3 mutant 'LFL' (Leu366, Phe399 and Leu432 to Gln) (domain or fragment)
# chain: B1 chain
# B5: AnkB_repeats (24 ANK repeats of human 220 kDa ankyrin-B, residues 28–873) (domain or fragment)
# chain: B1 chain with Q339L, Q372F, Q405L
# B6: AnkB_repeats (24 ANK repeats of human 220 kDa ankyrin-B, residues 28–873), Q01484 I267Q; L300Q (protein)
# chain: B1 chain with I240Q, L273Q, Q339L, Q372F, Q405L
# B7: AnkB_repeats site 2 mutant 'IL' (Ile267 and Leu300 to Gln) (domain or fragment)
# chain: B1 chain with I240Q, L273Q, Q339L, Q372F, Q405L
# B8: AnkR 1601-1672 (protein)
# chain: MLEMSDMQVWSAGLTPSLVTAEDSSLECSKAEDSDAIPEWKLEGAHSEDTQGPELGSQDLVEDDTVDSDATN
# B9: AnkR 1529-1672 (protein)
# chain: RQSRNLKPERRHGDREYSLSPSQVNGYSSLQDELLSPASLQYALPSPLCADQYWNEVTVIDAIPLAATEHDTMLEMSDMQVWSAGLTPSLVTAEDSSLECSKAEDSDAIPEWKLEGAHSEDTQGPELGSQDLVEDDTVDSDATN
# B10: AnkR 1529-1600 (protein)
# chain: RQSRNLKPERRHGDREYSLSPSQVNGYSSLQDELLSPASLQYALPSPLCADQYWNEVTVIDAIPLAATEHDT
# B11: AnkG_repeats (24 ANK repeats of rat 190 kDa ankyrin-G, residues 38–855), O70511 T94A; N98E (protein)
# chain: KSDANASYLRAARAGHLEKALDYIKNGVDVNICNQNGLNALHLASKEGHVEVVSELLQREANVDAAAKKGETALHIASLAGQAEVVKVLVTNGANVNAQSQNGFTPLYMAAQENHLEVVRFLLDNGASQSLATEDGFTPLAVALQQGHDQVVSLLLENDTKGKVRLPALHIAARKDDTKAAALLLQNDTNADIESKMVVNRATESGFTPLHIAAHYGNINVATLLLNRAAAVDFTARNDITPLHVASKRGNANMVKLLLDRGAKIDAKTRDGLTPLHCGARSGHEQVVEMLLDRAAPILSKTKNGLSPLHMATQGDHLNCVQLLLQHNVPVDDVTNDYLTALHVAAHCGHYKVAKVLLDKKANPNAKALNGFTPLHIACKKNRIRVMELLLKHGASIQAVTESGLTPIHVAAFMGHVNIVSQLMHHGASPNTTNVRGETALHMAARSGQAEVVRYLVQDGAQVEAKAKDDQTPLHISARLGKADIVQQLLQQGASPNAATTSGYTPLHLSAREGHEDVAAFLLDHGASLSITTKKGFTPLHVAAKYGKLEVASLLLQKSASPDAAGKSGLTPLHVAAHYDNQKVALLLLDQGASPHAAAKNGYTPLHIAAKKNQMDIATSLLEYGADANAVTRQGIASVHLAAQEGHVDMVSLLLSRNANVNLSNKSGLTPLHLAAQEDRVNVAEVLVNQGAHVDAQTKMGYTPLHVGCHYGNIKIVNFLLQHSAKVNAKTKNGYTPLHQAAQQGHTHIINVLLQNNASPNELTVNGNTALAIARRLGYISVVDTLKVVTEEIMTTTTITEKHKMNVPETMNEVLDMS
# B12: AnkR 1529-1825 (protein)
# chain: RQSRNLKPERRHGDREYSLSPSQVNGYSSLQDELLSPASLQYALPSPLCADQYWNEVTVIDAIPLAATEHDTMLEMSDMQVWSAGLTPSLVTAEDSSLECSKAEDSDAIPEWKLEGAHSEDTQGPELGSQDLVEDDTVDSDATNGLADLLGQEEGQRSEKKRQEVSGTEQDTETEVSLVSGQQRVHARITDSPSVRQVLDRSQARTLDWDKQGSTAVHPQEATQSSWQEEVTQGPHSFQRRITTIQGPEPGALQEYEQVLVSTREHVQRGPPETGSPKAGKEPSLWAPESAFSQEVQ
# Tests used:
# [1] = molecular target: AnkG_repeats (24 ANK repeats of rat 190 kDa ankyrin-G, residues 38–855) (rat) (UniProt O70511); test: ITC; VP-ITC at 25°C; 50 mM Tris pH 7.5, 100 mM NaCl, 1 mM EDTA, 1 mM DTT; binding partner (AS, Nav1.2 ABD proteins, neurofascin ABD; 200–300 µM) in the syringe, ANK repeats (20–30 µM) in the cell; one-site binding model
# [2] = molecular target: T1, FITC-labeled AnkR_AS peptide; test: fluorescence polarisation; conditions: chain shown with the change
# [3] = molecular target: FITC-labeled AnkR_AS peptide (mouse); test: fluorescence polarisation; FITC-labeled peptide (~1 µM) titrated with AnkB_repeats WT or mutants; 25°C; 50 mM Tris pH 8.0, 100 mM NaCl, 1 mM DTT, 1 mM EDTA; one-site binding model
# [4] = molecular target: T2, AnkR_repeats (24 ANK repeats of …); test: ITC
# [5] = molecular target: T3, Nav1.2_ABD (ankyrin binding domain of …); test: ITC; conditions: chain shown with the change
molecule,measurement,setting,value
E1112A-Nav1.2 (ABD with E1112A) (domain or fragment),fold weaker binding than wild-type Nav1.2,[1],30 fold
"Nav1.2_ABD-C (27-residue motif of loop 2, residues 1103–1129) (domain or fragment)",fold weaker affinity than the entire ABD,[1],15 fold
"Nfasc_ABD (28-residue fragment of the neurofascin cytoplasmic tail, residues 1187–1214) (domain or fragment)",Kd,[1],210 nM
E1112Q-Nav1.2 (ABD with E1112Q) (domain or fragment),fold weaker binding than wild-type Nav1.2,[1],30 fold
"Nav1.2_ABD (ankyrin binding domain of Nav1.2, residues 1035–1129) (domain or fragment)",Kd,[1],170 nM
B1,Kd,[2],410 nM
B2,Kd,[2],2700 nM
B3,fold decrease in AnkR AS binding against WT ANK repeats,[3],20 fold
B4,fold decrease in AnkR AS binding against WT ANK repeats,[3],3 fold
B5,Kd,[3],140 nM
B6,Kd,[2],3100 nM
B7,fold decrease in AnkR AS binding against WT ANK repeats,[3],20 fold
DAIPLAATEHDTMLEMSDMQVWSAGLTPSLVTAEDS [AnkR 1589-1624],Kd,[4],2200 nM
CADQYWNEVTVIDAIPLAATEHDTMLEMSDMQVWSA [AnkR 1577-1612],Kd,[4],2000 nM
B8,Kd,[4],> 50000 nM
B9,Kd,[4],1100 nM
DAIPLAATEHDTMLEMSDMQVWSA [AnkR 1589-1612],Kd,[4],23000 nM
B10,Kd,[4],> 50000 nM
B11,Kd,[5],2600 nM
B12,Kd,[4],1000 nM
